Here are results for two molecules from patent US20250042994A1.

For the assay, the target named is cynomolgus monkey CD19 on peripheral blood B cells (cynomolgus monkey (Macaca fascicularis)). Put plainly: FACS, cynomolgus PBMC, CD20+ B cells. For orientation: In flow cytometry, cells or beads pass a laser one at a time.

B1: F3.23.10 (antibody, human IgG1, V domains shown)
VH: EFQLQQSGPELVKPGASVKISCKASDYSFTDYNMNWVKQSNGASLEWIGIINPNFGSTSYNQKFKGKATLTVDQSSSTAFMQLNSLTSEDSAVYYCARSEYYGSSGFAYWGQGTLVTVSA
VL: DVVVTQTPLSLPVSFGDQVSISCRSSQSLVNSYGNTYLSWYLHKPGQSPQLLIYGISNRFSGVPDRFSGSGSGTDFTLKITTIKPEDLGMYYCLQGTHQPWTFGGGTKLEIK
Consider B1, for which the Proportion of chimeric antibody positive cells to B cells (%) at 1 nM was 2%, the Proportion of chimeric antibody positive cells to B cells (%) at 10 nM is 1% and the Proportion of chimeric antibody positive cells to B cells (%) at 100 nM worked out at 12%.

B2: F4.180.1 (antibody, human IgG1, V domains shown)
VH: EVQLQQSAPELVKPGASVKMSCKTSGYTFTENIIHWVKQTHGKSLEWIGGINPDNGGTSYHQKFKGRTTLTIDKSSSTAYMELRSLTSDDSAVFFCARQAPLYWYFDIWGAGTTVTVSS
VL: DIVLTQSPASLAVSLGQRATISCRASESVDSYGNSLMHWFQQKPGQPPRLLIYRASNLESGIPARFSGSGSRTDFTLTITPVEADDVATYYCQQSNEDPWTFGGGTKLEIK
On to B2, for which the Proportion of chimeric antibody positive cells to B cells (%) at 1 nM is 2%, the Proportion of chimeric antibody positive cells to B cells (%) at 10 nM is 3% and the Proportion of chimeric antibody positive cells to B cells (%) at 100 nM amounted to 9%.
